Patent US20260028418A1 (GC CELL, published 2026)

Key:
HER2-ECD-Fc [1] = biological target: T1, HER2-ECD-Fc (human, UniProt P04626 23-652); test: ELISA on HER2-ECD-Fc; antibody at 5 × 10^-5 µg/mL
T1 construct: extracellular domain; Produced in FreeStyle 293F cells; also called HER2-ECD Fc fusion protein

HER2-ECD-Fc [2] = biological target: T1, HER2-ECD-Fc; test: ELISA on HER2-ECD-Fc; antibody at 5 × 10^-7 µg/mL
HER2-ECD-Fc [3] = biological target: T1, HER2-ECD-Fc; test: ELISA on HER2-ECD-Fc; antibody at 5 × 10^-3 µg/mL
HER2-ECD-Fc [4] = biological target: T1, HER2-ECD-Fc; test: ELISA on HER2-ECD-Fc; antibody at 5 µg/mL
HER2-ECD-Fc [5] = biological target: T1, HER2-ECD-Fc; test: ELISA on HER2-ECD-Fc; antibody at 5 × 10^-1 µg/mL
HER2-ECD-Fc [6] = biological target: T1, HER2-ECD-Fc; test: ELISA on HER2-ECD-Fc; antibody at 50 µg/mL
HER2-ECD DIII Fc = biological target: T2, HER2-ECD DIII Fc (human, UniProt P04626 342-510, limits assumed); test: ELISA on plate-coated HER2 domain-Fc fusion (1 µg/mL), anti-human IgG-HRP, Abs 450 nm; antibody concentration not given
T2 construct: domain: domain 3; also called domain 3 of the extracellular domains of the HER2 protein; not shown: Hinge and Fc region (CH2-CH3) of human IgG1, at the C-terminus
Procedure: (§1) The HER2-ECD DI Fc, HER2-ECD DII Fc, HER2-ECD DIII Fc, HER2-ECD DIV Fc and HER2-ECD Fc fusion proteins were immobilized at 4° C. overnight onto a Costar 96-well plate (Corning, Cat. No. 3590) at a concentration of 1 μg/mL […]. The resultant was washed 3 times with TBS-T (0.05% Triton X-100) and then blocked at room temperature for 1 hour with 100 μL of TBS-T/BSA (5% BSA). After washing the blocked plate 3 times and adding the anti-HER2 antibody, the antibody was allowed to bind at room temperature for 1 hour. After washing 3 times and then adding anti-human IgG-HRP diluted to 1:3,000 in TBS-T/BSA, as a secondary antibody, the antibody was allowed to bind at room temperature for 1 hour. After washing the resultant 3 times and adding TMB (SurModics, Cat. No. TMBC-1000-01), the mixture was allowed to develop color at room temperature for 5 minutes. Then, the color development was stopped by adding 1 N sulfuric acid (DukSan, Cat. No. 254). Absorbance was measured at 450 nm using Victor X3 (PerkinElmer, Cat. No. 2030-0030).

HER2-ECD DI Fc = biological target: T3, HER2-ECD DI Fc (human, UniProt P04626 23-217, limits assumed); test: as above
T3 construct: domain: domain 1; also called domain 1 of the extracellular domains of the HER2 protein; not shown: Hinge and Fc region (CH2-CH3) of human IgG1, at the C-terminus
Procedure: as §1

[7] = biological target: T4, HER3 (R&D Systems, #348-RB-050) (human, UniProt P21860 20-643); test: ELISA on ErbB family extracellular domains, Absorbance at 450 nm; antibody concentration not given
T4 construct: extracellular domain; Bought
Excerpt: (§2) It was investigated whether the developed five antibodies of the present disclosure specifically bind to HER2 belonging to the ErbB family proteins by ELISA.

[8] = biological target: T5, HER4 (R&D Systems, #1131-ER-050) (human, UniProt Q15303 26-651); test: as above
T5 construct: extracellular domain; Bought
T5 sequence (looked up): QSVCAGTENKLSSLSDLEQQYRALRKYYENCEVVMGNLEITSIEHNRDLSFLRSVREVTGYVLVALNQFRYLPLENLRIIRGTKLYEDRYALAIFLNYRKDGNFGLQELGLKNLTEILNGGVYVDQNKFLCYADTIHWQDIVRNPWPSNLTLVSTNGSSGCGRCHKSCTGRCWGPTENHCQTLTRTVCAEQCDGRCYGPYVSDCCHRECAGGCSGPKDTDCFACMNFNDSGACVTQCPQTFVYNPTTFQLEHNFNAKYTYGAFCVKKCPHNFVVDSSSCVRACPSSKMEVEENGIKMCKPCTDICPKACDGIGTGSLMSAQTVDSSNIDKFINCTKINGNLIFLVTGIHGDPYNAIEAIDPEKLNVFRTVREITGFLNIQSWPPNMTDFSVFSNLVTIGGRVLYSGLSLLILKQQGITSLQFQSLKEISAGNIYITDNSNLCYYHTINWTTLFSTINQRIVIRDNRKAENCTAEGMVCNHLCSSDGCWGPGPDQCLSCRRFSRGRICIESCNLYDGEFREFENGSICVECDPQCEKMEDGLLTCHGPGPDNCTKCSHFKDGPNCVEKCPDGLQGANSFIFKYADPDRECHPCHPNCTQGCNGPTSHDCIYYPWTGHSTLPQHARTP
Excerpt: as §2

EGFR-ECD-Fc = biological target: T6, EGFR-ECD-Fc (human, UniProt P00533 25-645); test: as above
T6 construct: extracellular domain; also called extracellular domain of EGFR; not shown: Hinge and Fc region (CH2-CH3) of human IgG1; The protein was produced in the same manner as HER2-ECD-Fc
Excerpt: as §2

HER2-ECD-Fc [9] = biological target: T1, HER2-ECD-Fc; test: ELISA on HER2-ECD-Fc; antibody at 5 × 10^-2 µg/mL
HER2-ECD-Fc [10] = biological target: T1, HER2-ECD-Fc; test: ELISA on HER2-ECD-Fc; antibody at 5 × 10^-4 µg/mL
HER2-ECD-Fc [11] = biological target: T1, HER2-ECD-Fc; test: ELISA on HER2-ECD-Fc; antibody at 5 × 10^-6 µg/mL

absorbance (HER2-ECD-Fc [1]): 0.14
absorbance (HER2-ECD-Fc [2]): 0.12
absorbance (HER2-ECD-Fc [3]): 1.67
absorbance (HER2-ECD-Fc [4]): 2.9
absorbance (HER2-ECD-Fc [5]): 2.94
absorbance (HER2-ECD-Fc [6]): 2.74
binding result (HER2-ECD DIII Fc): no binding
binding result (HER2-ECD DI Fc): no binding
binding result [7]: no binding
binding result [8]: no binding
binding result (EGFR-ECD-Fc): no binding
absorbance (HER2-ECD-Fc [9]): 2.72
absorbance (HER2-ECD-Fc [10]): 0.34
absorbance (HER2-ECD-Fc [11]): 0.12
B1: hz8G11 (antibody, V domains shown)
VH: QVQLVQSGQEVKKPGASVKVSCKASGYSFTGYYMHWVRQAPGQGLEWIGHINPNNGGTSYNQKFKGRTTLTVDKSISTAYMELSRLRSDDTAVYYCAREEAFAYWGQGTLVTVSS
VL: DIQMTQSPSSLSASVGDRVTISCRASQDISNYLNWYQQKPGKAPKLLIYYTSRLHSGVPSRFSGSGSGTDFSLTISSLQPEDIATYYCQQGITPPWTFGGGTKVEIK
notes: Humanized antibody, detected with anti-human IgG-HRP; also called humanized 8G11 antibody
